Experimental data as given in patent KR20230076376A.
Numbering of substitutions follows the chain as printed.

B1: anti-Gc (ectodomain) 변이체 Fab 클론 Gc-3-1E12 (Fab, V domains shown)
VH: EVQLVESGGGLVQPGGSLRLSCAASGFTFSDYAMHWVRQAPGKGLEWVSGISSSGGSTFYADSVKGRFTISRDNSKNTLYLQMNSLRAEDTAVYYCAKWEWGYQERKWAFDLWGQGTLVTVSS
VL: DIQMTQSPSSLSASVGDRVTITCRASQSISNYLNWYQQKPGKAPKLLIYATSSLQSGVPSRFSGSGSGTDFTLTISSLQPEDFATYYCQQTYSFPWTFGQGTKVEIK
B2: anti-Gc (ectodomain) 변이체 Fab 클론 Gc-b3-1E2 (Fab, V domains shown)
VH: EVQLVESGGGLVQPGGSLRLSCAASGFTFSNYAMNWVRQAPGKGLEWVSAISGSGSSTYYADSVKGRFTISRDNSKNTLYLQMNSLRAEDTAVYYCAKQFYVGQWLSGWFDVWGQGTLVTVSS
VL: B1 VL with S53R, T91S
B3: anti-Gc (ectodomain) 변이체 Fab 클론 Gc-4-1C8 (Fab, V domains shown)
VH: EVQLVESGGGLVQPGGSLRLSCAASGFTFSDYAMNWVRQAPGKGLEWVSSISSSGSSTYYADSVKGRFTISRDNSKNTLYLQMNSLRAEDTAVYYCAKVKWRQSTSEYFDYWGQGTLVTVSS
VL: B1 VL with S28T, T51A, S53T, T91S

biological target: SFTSV Gc 변이체 (Severe Fever with Thrombocytopenia Syndrome Virus)

Row | Binder | EC50
1 | B1 | 6 nM
2 | B2 | 89 nM
3 | B3 | 157 nM
